Where a chain is given by its changes, count along the chain named. “And” between values parts separate entries of the source, which are not always exact repeats. Equal values may be shown once. Read-outs that look alike come from different tables or passages of the source. Each block holds one binder with its values, some of them ahead of it.
How the values were obtained:
[1] = target: T1, human CD137 expressed on cells (human, UniProt Q07011 24-255); test: cell-based or functional assay
[2] = target: T1, human CD137 expressed on cells; test: cell-based or functional assay; remark: listed apart in the source
biotinylated human PD-L1 [3] = target: T2, biotinylated human PD-L1 (human, UniProt Q9NZQ7 19-238, limits assumed, biotinylated); test: competition ELISA; coated human B7.1 as competitor; biotinylated PD-L1 pre-incubated with inhibitor
T2 construct: also called biotinylated PD-L1

[4] = target: T1, human CD137 expressed on cells; test: cell-based or functional assay; remark: listed apart in the source
[5] = target: T1, human CD137 expressed on cells; test: cell-based or functional assay; remark: listed apart in the source
[6] = target: T1, human CD137 expressed on cells; test: cell-based or functional assay; remark: listed apart in the source
[7] = target: T1, human CD137 expressed on cells; test: cell-based or functional assay; remark: listed apart in the source
[8] = target: T1, human CD137 expressed on cells; test: cell-based or functional assay; remark: listed apart in the source
[9] = target: T1, human CD137 expressed on cells; test: cell-based or functional assay; remark: listed apart in the source
[10] = target: T1, human CD137 expressed on cells; test: cell-based or functional assay; remark: listed apart in the source
[11] = target: T1, human CD137 expressed on cells; test: cell-based or functional assay; remark: listed apart in the source
biotinylated human PD-L1 [12] = target: T2, biotinylated human PD-L1; test: competition ELISA; coated human PD-1 as competitor; biotinylated human PD-L1 pre-incubated with inhibitor
[13] = target: T3, human PD-L1 expressed on cells (human, UniProt Q9NZQ7 19-290); test: cell-based or functional assay
[14] = target: T3, human PD-L1 expressed on cells; test: cell-based or functional assay; remark: listed apart in the source
[15] = target: human PD-L1-Fc chimeric protein (human, UniProt Q9NZQ7 19-239); test: SPR (Biacore T200); PD-L1-Fc captured by anti-human Fc
human serum albumin = target: T4, human serum albumin (human, UniProt P02768 25-609); test: SPR (Biacore T200); SA amine-coupled; pH 5.5
T4 construct: Amine-coupled to a CM5 chip; assay at pH 5.5; also called HSA; human SA

EC50 (ng/ml), IL-2 secretion by PBMC; anti-CD3 1 ug/ml, 50000 PD-L1 expressing CHO cells/well [1]: 12.8 ng/mL | EC50 (ng/ml), IL-2 secretion by PBMC; anti-CD3 1 ug/ml, 100000 PD-L1 expressing CHO cells/well [1]: 86.2 ng/mL | EC50 (ng/ml), IL-2 secretion by PBMC; anti-CD3 1 ug/ml, 200000 PD-L1 expressing CHO cells/well [1]: 80.6 ng/mL | EC50 (ng/ml), IL-2 secretion by PBMC; anti-CD3 2 ug/ml, 50000 PD-L1 expressing CHO cells/well [1]: 52 ng/mL | EC50 (ng/ml), IL-2 secretion by PBMC; anti-CD3 2 ug/ml, 100000 PD-L1 expressing CHO cells/well [1]: 41.9 ng/mL | EC50 (ng/ml), IL-2 secretion by PBMC; anti-CD3 2 ug/ml, 200000 PD-L1 expressing CHO cells/well [1]: 30.1 ng/mL | EC50 in ng/ml, CD137 activation, NFkB-luciferase Jurkat reporter assay, PD-L1 expressing CHO cells, 6h [2]: 7.84 ng/mL | EC50 in ng/ml, CD137 activation, NFkB-luciferase Jurkat reporter assay, PD-L1 expressing CHO cells, 6h, + HSA [2]: 7.92 ng/mL | IC50 (biotinylated human PD-L1 [3]): 0.0122 mg/L | max. activation (%), NF-kB reporter gene, CHO-PD-L1; HSA: no [4]: 499% | max. activation (%), NF-kB reporter gene, HCC827 +IFNg; HSA: no [4]: 134% | max. activation (%), NF-kB reporter gene, HCC827 -IFNg; HSA: no [4]: 111% | EC50 in ng/ml, CD137 activation, NFkB-luciferase Jurkat reporter assay, HCC827 cells without IFNg [5]: 11.5 ng/mL and 13.1 ng/mL and 13 ng/mL | EC50 in ng/ml, CD137 activation, NFkB-luciferase Jurkat reporter assay, HCC827 with IFNy stimulation, 24h [6]: 7.51 ng/mL | EC50 in ng/ml, CD137 activation, NFkB-luciferase Jurkat reporter assay, HCC827 without IFNy stimulation, 24h [6]: 9.52 ng/mL | EC50 in ng/ml, IL-2 secretion, PBMC stimulated with SEA [7]: 39.9 ng/mL | EC50 in ng/ml, CD137 activation, NFkB-luciferase Jurkat reporter assay, CHO-PD-L1 cells [8]: 11.7 ng/mL | EC50 in ng/ml, CD137 activation, NFkB-luciferase Jurkat reporter assay, PD-L1 expressing CHO cells, 24h [9]: 13.8 ng/mL | EC50 in ng/ml, CD137 activation, NFkB-luciferase Jurkat reporter assay, PD-L1 expressing CHO cells, 24h, + HSA [9]: 14.8 ng/mL | EC50 in ng/ml, CD137 activation, NFkB-luciferase Jurkat reporter assay, HCC827 cells stimulated with IFNg [10]: 9.27 ng/mL and 8.88 ng/mL and 9.23 ng/mL | EC50 in ng/ml, CD137 activation, NFkB-luciferase Jurkat reporter assay, CHO-PD-L1 cells [11]: 5.13 ng/mL and 4.86 ng/mL and 6.3 ng/mL | IC50 (biotinylated human PD-L1 [12]): 0.00835 mg/L | IC50 (ng/ml), neutralization of PD-L1/PD-1 interaction, NFAT-luciferase reporter gene assay [13]: 137 ng/mL
B1: PRO885: 38-02-A04 sc01 scDb-i/33-03-G02 sc01 scDb-o (bispecific antibody)
chain: DIQMTQSPSSLSASVGDRVTITCQASQSINDYLAWYQQKPGKAPKLLIYKASTLASGVPSRFSGSGSGTDFTLTISSLQPEDFATYYCQQGYIITDIDNVFGTGTKVTVLGGGGGSQVQLQESGPGLVKPSETLSLTCKVSGFSFSNSYWICWIRQPPGKGLEWIGCTFVGSSDSTYYANWAKGRVTISVDSSKNQFSLKLSSVTAADTAVYYCARHPSDAVYGYANNLWGQGTLVTVSSGGGGSGGGGSGGGGSGGGGSIQMTQSPSSLSASVGDRVTITCQASQSINNVLAWYQQKPGKAPKLLIYRASTLASGVPSRFSGSGSGTDFTLTISSLQPEDFATYYCQSSYGNYGDFGTGTKVTVLGGGGGSQVQLQESGPGLVKPSETLSLTCKVSGFSFSSGYDMCWIRQPPGKGLEWIGCVVAGSVDITYYASWAKGRVTISVDSSKNQFSLKLSSVTAADTAVYYCARKDAYSDAFNLWGQGTLVTVSS
notes: anti-PD-L1xCD137 scDb, CDR grafts of both domains

max. activation (%), NF-kB reporter gene, CHO-PD-L1; HSA: no [4]: 242% | max. activation (%), NF-kB reporter gene, HCC827 +IFNg; HSA: no [4]: 208% | max. activation (%), NF-kB reporter gene, HCC827 -IFNg; HSA: no [4]: 135% | EC50 in ng/ml, CD137 activation, NFkB-luciferase Jurkat reporter assay, HCC827 cells without IFNg [5]: 6.97 ng/mL | IC50, neutralization of PD-L1/PD-1 interaction, NFAT-luciferase reporter gene assay [14]: 0.0481 mg/L | EC50 in ng/ml, CD137 activation, NFkB-luciferase Jurkat reporter assay, HCC827 cells stimulated with IFNg [10]: 5.48 ng/mL | EC50 in ng/ml, CD137 activation, NFkB-luciferase Jurkat reporter assay, CHO-PD-L1 cells [11]: 6 ng/mL | IC50 (biotinylated human PD-L1 [12]): 0.00128 mg/L
B2: PRO1126: 38-02-A04 sc01 scDb-i/33_03_G02 sc03 Full scDb-o (bispecific antibody)
chain: B1 chain with I2F, M4L, A43S, V374S, V396A, I410V, G422A, V446K, F453V, Y469F
notes: scDb, STR graft of the PD-L1 domain

EC50 in ng/ml, CD137 activation, NFkB-luciferase Jurkat reporter assay, PD-L1 expressing CHO cells, 6h, + HSA [2]: 70.9 ng/mL | max. activation (%), NF-kB reporter gene, CHO-PD-L1; HSA: yes, 24h [4]: 36.2% | EC50 in ng/ml, CD137 activation, NFkB-luciferase Jurkat reporter assay, PD-L1 expressing CHO cells, 24h, + HSA [9]: 121 ng/mL | binding result [15]: binds | binding result (human serum albumin): binds
B3: PRO1058: 38_27_C05 sc01 scDb-i/33-03-G02 sc01 scDb-o/mxr HSA (23-13-A01-sc03, sk17sh4) (other)
chain: DIQMTQSPSSLSASVGDRVTITCQASQSINDYLAWYQQKPGKAPKLLIYKASTLASGVPSRFSGSGSGTDFTLTISSLQPEDFATYYCQQGYIITDIDNVFGTGTKVTVLGGGGGSQVQLQESGPGLVKPSETLSLTCKVSGFSFNNDYDMCWIRQPPGKGLEWIGCIDTGDGSTYYASWAKGRVTISVDSSKNQFSLKLSSVTAADTAVYYCAREAASSSGYGMGYFDLWGQGTLVTVSSGGGGSGGGGSGGGGSGGGGSIQMTQSPSSLSASVGDRVTITCQSSQSVYDNNWLAWYQQKPGKAPKLLIYRASNLASGVPSRFSGSGSGTDFTLTISSLQPEDFATYYCQGTYLSSNWYWAFGTGTKVTVLGGGGGSQVQLQESGPGLVKPSETLSLTCKVSGFSFSSGYDMCWIRQPPGKGLEWIGCVVAGSVDITYYASWAKGRVTISVDSSKNQFSLKLSSVTAADTAVYYCARKDAYSDAFNLWGQGTLVTVSSGGGGSGGGGSVVMTQSPSSLSASVGDRVTITCQASQIISSRSAWYQQKPGQPPKLLIYQASKLASGVPSRFSGSGSGTDFTLTISSLQPEDFATYYCQCTYIDSNFGAFGGGTKLTVLGGGGGSGGGGSGGGGSGGGGSEVQLVESGGGLVQPGGSLRLSCAASGFSFSSSYWICWVRQAPGKGLEWVGCVFTGDGTTYYASWAKGRFTISRDNSKNTVYLQMNSLRAEDTATYFCARPVSVYYYGMDLWGQGTLVTVSS
notes: Trispecific scTriabody (scDb-scFv)
